{
  "source": "paper PMC2881812",
  "target": "p22(79-227) (T. brucei)",
  "experiment": "SEC",
  "data": [
    {"substance": "p22(79-227) (domain or fragment)", "values": [
      {"measurement": "stoichiometry N", "value": 3}
    ]}
  ]
}
